# According to patent publication US7432061B2, “Assays for measuring matrix metalloproteinase activities” (BioZyme, Inc., priority 2002, dated 2008):
# Columns and labels:
# [1] = target: collagenase 3 (Homo sapiens, UniProt P45452); assay: Inhibition with type II collagen, FlSub3 cleavage; format: biochemical; conditions: for Average Percent Inhibition from 1.1 to 6.6 Hours / Average Percent Inhibition: COL3(.013 nM)
# Procedure: (§1) In a 96 well plate, collagenase 3 (0.013 nM), collagenase 1 (1.25 nM), stromelysin 1 (0.8 nM), gelatinase A (0.025 nM), or gelatinase B (0.008 nM) were reacted with 20 uM FlSub3 in standard assay buffer in the presence of varying concentrations of bovine type II collagen (0.18-44 ug/ml). The type II collagen, a 1 mg/ml stock in 0.5M acetic acid, was transferred into assay buffer by passing the material through a biospin P6 column from Amersham. The reaction was initiated by addition of substrate to enzyme containing either buffer or an appropriate amount of type II collagen. Data points were taken every 15 min over a period of 15 hours using an excitation and emission wavelength of 350 and 485 nm respectively. The usable data (1-6 hours), was taken and the percent inhibition by type II collagen was calculated for each enzyme and plotted as a function of inhibitor concentration and time in the assay. It should be noted that the percent inhibition varies with time as the bovine substrate is consumed during the reaction course.
# [2] = target: T1, collagenase 1 (Homo sapiens, UniProt P03956); assay: Inhibition with type II collagen, FlSub3 cleavage; format: biochemical; conditions: for Improvement In Selectivity (Col-1 v Col-3): 44 ug/ml Type II Collagen vs no Type II Collagen, FlSb3; for Average Percent Inhibition from 1.1 to 6.6 Hours / Average Percent Inhibition: COL1(1.25 nM)
# T1 sequence (P03956 100-469): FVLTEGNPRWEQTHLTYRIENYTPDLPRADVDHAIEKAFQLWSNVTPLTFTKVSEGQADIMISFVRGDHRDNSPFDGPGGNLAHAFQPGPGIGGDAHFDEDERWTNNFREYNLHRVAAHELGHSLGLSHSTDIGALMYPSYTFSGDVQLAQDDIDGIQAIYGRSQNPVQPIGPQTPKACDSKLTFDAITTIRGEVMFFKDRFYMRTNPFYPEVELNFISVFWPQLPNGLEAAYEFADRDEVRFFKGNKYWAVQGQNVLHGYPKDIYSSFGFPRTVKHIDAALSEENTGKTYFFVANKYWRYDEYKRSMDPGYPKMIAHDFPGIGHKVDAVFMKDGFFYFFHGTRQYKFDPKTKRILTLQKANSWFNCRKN
# Procedure: as §1
# [3] = TypeIICOL(1.6 ug/ul), FISb3, hour 0.10 to 1.10
# [4] = TypeIICOL(1.6 ug/ul), FISb3, hour 1.10 to 2.10
# [5] = TypeIICOL(1.6 ug/ul), FISb3, hour 1.10 to 6.60
# [6] = TypeIICOL(1.6 ug/ul), FISb3, hour 2.10 to 3.10
# [7] = TypeIICOL(1.6 ug/ul), FISb3, hour 3.10 to 4.10
# [8] = TypeIICOL(1.6 ug/ul), FISb3, hour 4.10 to 5.10
# [9] = TypeIICOL(1.6 ug/ul), FISb3, hour 5.10 to 6.10
# [10] = TypeIICOL(4.9 ug/ul), FISb3, hour 0.10 to 1.10
# [11] = TypeIICOL(4.9 ug/ul), FISb3, hour 1.10 to 2.10
# [12] = TypeIICOL(4.9 ug/ul), FISb3, hour 1.10 to 6.60
# [13] = TypeIICOL(4.9 ug/ul), FISb3, hour 2.10 to 3.10
# [14] = TypeIICOL(4.9 ug/ul), FISb3, hour 3.10 to 4.10
# [15] = TypeIICOL(4.9 ug/ul), FISb3, hour 4.10 to 5.10
# [16] = TypeIICOL(4.9 ug/ul), FISb3, hour 5.10 to 6.10
# [17] = TypeIICOL(15 ug/ul), FISb3, hour 0.10 to 1.10
# [18] = TypeIICOL(15 ug/ul), FISb3, hour 1.10 to 2.10
# [19] = TypeIICOL(15 ug/ul), FISb3, hour 1.10 to 6.60
# [20] = TypeIICOL(15 ug/ul), FISb3, hour 2.10 to 3.10
# [21] = TypeIICOL(15 ug/ul), FISb3, hour 3.10 to 4.10
# [22] = TypeIICOL(15 ug/ul), FISb3, hour 4.10 to 5.10
# [23] = TypeIICOL(15 ug/ul), FISb3, hour 5.10 to 6.10
# [24] = TypeIICOL(44 ug/ul), FISb3, hour 0.10 to 1.10
# [25] = TypeIICOL(44 ug/ul), FISb3, hour 1.10 to 2.10
# [26] = TypeIICOL(44 ug/ul), FISb3, hour 1.10 to 6.60
# [27] = TypeIICOL(44 ug/ul), FISb3, hour 2.10 to 3.10
# [28] = TypeIICOL(44 ug/ul), FISb3, hour 3.10 to 4.10
# [29] = TypeIICOL(44 ug/ul), FISb3, hour 4.10 to 5.10
# [30] = TypeIICOL(44 ug/ul), FISb3, hour 5.10 to 6.10
# [31] = TypeIICOL(.18 ug/ul), FISb3, hour 0.10 to 1.10
# [32] = TypeIICOL(.18 ug/ul), FISb3, hour 1.10 to 2.10
# [33] = TypeIICOL(.18 ug/ul), FISb3, hour 1.10 to 6.60
# [34] = TypeIICOL(.18 ug/ul), FISb3, hour 2.10 to 3.10
# [35] = TypeIICOL(.18 ug/ul), FISb3, hour 3.10 to 4.10
# [36] = TypeIICOL(.18 ug/ul), FISb3, hour 4.10 to 5.10
# [37] = TypeIICOL(.18 ug/ul), FISb3, hour 5.10 to 6.10
# [38] = TypeIICOL(.55 ug/ul), FISb3, hour 0.10 to 1.10
# [39] = TypeIICOL(.55 ug/ul), FISb3, hour 1.10 to 2.10
# [40] = TypeIICOL(.55 ug/ul), FISb3, hour 1.10 to 6.60
# [41] = TypeIICOL(.55 ug/ul), FISb3, hour 2.10 to 3.10
# [42] = TypeIICOL(.55 ug/ul), FISb3, hour 3.10 to 4.10
# [43] = TypeIICOL(.55 ug/ul), FISb3, hour 4.10 to 5.10
# [44] = TypeIICOL(.55 ug/ul), FISb3, hour 5.10 to 6.10
substance,measurement,setting,value
"Type II Collagen: bovine type II collagen, full length MMP substrate used as inhibitor of gelatinases",Average Percent Inhibition from 1.1 to 6.6 Hours,[1]; Type II Collagen 0.18 ug/ml,−8%
same,Average Percent Inhibition from 1.1 to 6.6 Hours,[1]; Type II Collagen 0.54 ug/ml,−11%
same,Average Percent Inhibition from 1.1 to 6.6 Hours,[1]; Type II Collagen 1.63 ug/ml,−11%
same,Average Percent Inhibition from 1.1 to 6.6 Hours,[1]; Type II Collagen 4.89 ug/ml,−28%
same,Average Percent Inhibition from 1.1 to 6.6 Hours,[1]; Type II Collagen 14.67 ug/ml,−44%
same,Average Percent Inhibition from 1.1 to 6.6 Hours,[1]; Type II Collagen 44.00 ug/ml,−53%
same,Average Percent Inhibition,[1]; [3],16%
same,Average Percent Inhibition,[1]; [4],−4%
same,Average Percent Inhibition,[1]; [5],−11%
same,Average Percent Inhibition,[1]; [6],−15%
same,Average Percent Inhibition,[1]; [7],−13%
same,Average Percent Inhibition,[1]; [8],−12%
same,Average Percent Inhibition,[1]; [9],−11%
same,Average Percent Inhibition,[1]; [10],8%
same,Average Percent Inhibition,[1]; [11],−31%
same,Average Percent Inhibition,[1]; [12],−28%
same,Average Percent Inhibition,[1]; [13],−38%
same,Average Percent Inhibition,[1]; [14],−31%
same,Average Percent Inhibition,[1]; [15],−25%
same,Average Percent Inhibition,[1]; [16],−21%
same,Average Percent Inhibition,[1]; [17],6%
same,Average Percent Inhibition,[1]; [18],−48%
same,Average Percent Inhibition,[1]; [19],−44%
same,Average Percent Inhibition,[1]; [20],−59%
same,Average Percent Inhibition,[1]; [21],−50%
same,Average Percent Inhibition,[1]; [22],−41%
same,Average Percent Inhibition,[1]; [23],−34%
same,Average Percent Inhibition,[1]; [24],2%
same,Average Percent Inhibition,[1]; [25],−55%
same,Average Percent Inhibition,[1]; [26],−53%
same,Average Percent Inhibition,[1]; [27],−71%
same,Average Percent Inhibition,[1]; [28],−60%
same,Average Percent Inhibition,[1]; [29],−49%
same,Average Percent Inhibition,[1]; [30],−41%
same,Average Percent Inhibition,[1]; [31],6%
same,Average Percent Inhibition,[1]; [32],−9%
same,Average Percent Inhibition,[1]; [33],−8%
same,Average Percent Inhibition,[1]; [34],−10%
same,Average Percent Inhibition,[1]; [35],−8%
same,Average Percent Inhibition,[1]; [36],−7%
same,Average Percent Inhibition,[1]; [37],−6%
same,Average Percent Inhibition,[1]; [38],14%
same,Average Percent Inhibition,[1]; [39],−11%
same,Average Percent Inhibition,[1]; [40],−11%
same,Average Percent Inhibition,[1]; [41],−15%
same,Average Percent Inhibition,[1]; [42],−12%
same,Average Percent Inhibition,[1]; [43],−10%
same,Average Percent Inhibition,[1]; [44],−10%
same,inhibition of collagenase 3 by type II collagen,[1]; FlSub3,not observed
same,increase in specificity of collagenase 3 (factor),"[1]; highest concentration of collagen, FlSb3",2.5
same,effect on collagenase 3 at the highest concentrations of type II collagen,"[1]; highest concentrations, FlSub3","activation, rather than inhibition"
same,Improvement In Selectivity (Col-1 v Col-3),[2],2.5 fold
same,Improvement In Selectivity (Col-1 v Col-3),[2]; listed as collagen,four
same,Average Percent Inhibition from 1.1 to 6.6 Hours,[2]; Type II Collagen 0.18 ug/ml,0%
same,Average Percent Inhibition from 1.1 to 6.6 Hours,[2]; Type II Collagen 0.54 ug/ml,3%
same,Average Percent Inhibition from 1.1 to 6.6 Hours,[2]; Type II Collagen 1.63 ug/ml,0%
same,Average Percent Inhibition from 1.1 to 6.6 Hours,[2]; Type II Collagen 4.89 ug/ml,2%
same,Average Percent Inhibition from 1.1 to 6.6 Hours,[2]; Type II Collagen 14.67 ug/ml,10%
same,Average Percent Inhibition from 1.1 to 6.6 Hours,[2]; Type II Collagen 44.00 ug/ml,15%
same,Average Percent Inhibition,[2]; [3],19%
same,Average Percent Inhibition,[2]; [4],6%
same,Average Percent Inhibition,[2]; [5],0%
same,Average Percent Inhibition,[2]; [6],0%
same,Average Percent Inhibition,[2]; [7],−2%
same,Average Percent Inhibition,[2]; [8],−3%
same,Average Percent Inhibition,[2]; [9],−4%
same,Average Percent Inhibition,[2]; [10],37%
same,Average Percent Inhibition,[2]; [11],13%
same,Average Percent Inhibition,[2]; [12],2%
same,Average Percent Inhibition,[2]; [13],3%
same,Average Percent Inhibition,[2]; [14],0%
same,Average Percent Inhibition,[2]; [15],−2%
same,Average Percent Inhibition,[2]; [16],−4%
same,Average Percent Inhibition,[2]; [17],44%
same,Average Percent Inhibition,[2]; [18],21%
same,Average Percent Inhibition,[2]; [19],10%
same,Average Percent Inhibition,[2]; [20],12%
same,Average Percent Inhibition,[2]; [21],8%
same,Average Percent Inhibition,[2]; [22],6%
same,Average Percent Inhibition,[2]; [23],4%
same,Average Percent Inhibition,[2]; [24],50%
same,Average Percent Inhibition,[2]; [25],29%
same,Average Percent Inhibition,[2]; [26],15%
same,Average Percent Inhibition,[2]; [27],18%
same,Average Percent Inhibition,[2]; [28],12%
same,Average Percent Inhibition,[2]; [29],9%
same,Average Percent Inhibition,[2]; [30],7%
same,Average Percent Inhibition,[2]; [31],17%
same,Average Percent Inhibition,[2]; [32],3%
same,Average Percent Inhibition,[2]; [33],0%
same,Average Percent Inhibition,[2]; [34],0%
same,Average Percent Inhibition,[2]; [35],−1%
same,Average Percent Inhibition,[2]; [36],−1%
same,Average Percent Inhibition,[2]; [37],−1%
same,Average Percent Inhibition,[2]; [38],15%
same,Average Percent Inhibition,[2]; [39],6%
same,Average Percent Inhibition,[2]; [40],3%
same,Average Percent Inhibition,[2]; [41],3%
same,Average Percent Inhibition,[2]; [42],2%
same,Average Percent Inhibition,[2]; [43],1%
same,Average Percent Inhibition,[2]; [44],1%
same,inhibition of collagenase 1 by type II collagen,"[2]; early timepoints, FlSub3",small but significant inhibition
